# Data reported in patent US20200377555A1 (Janssen / Centocor, published 2020).
# How the values were obtained:
# [1] = target: T1, UFV160664 (influenza A H1N1 A/California/07/09); test: ELISA, polypeptide coated, antibody titrated; average of 3 independent assays
# [2] = target: T2, UFV160655 (influenza A H1N1 A/Brisbane/59/07); test: as above
# [3] = target: T3, UFV160665 (influenza A H1N1 A/California/07/09); test: as above
# [4] = target: T4, UFV160656 (influenza A H1N1 A/California/07/09); test: as above
# [5] = target: T1, UFV160664
# [6] = target: T2, UFV160655
# [7] = target: T3, UFV160665
# [8] = target: UFV5369 (influenza A H1N1 A/California/07/09)
# [9] = target: T4, UFV160656
binder,measurement,setting,value
"CR6261 (antibody, V domains shown) VH: EVQLVESGAEVKKPGSSVKVSCKASGGPFRSYAISWVRQAPGQGPEWMGGIIPIFGTTKYAPKFQGRVTITADDFAGTVYMELSSLRSEDTAMYYCAKHMGYQVRETMDVWGKGTTVTVSS VL: QSVLTQPPSVSAAPGQKVTISCSGSSSNIGNDYVSWYQQLPGTAPKLLIYDNNKRPSGIPDRFSGSKSGTSATLGITGLQTGDEANYYCATWDRRPTAYVVFGGGTKLTVLG",EC50,[1],0.395 nM
same,EC50,[2],0.396 nM
same,EC50,[3],0.425 nM
same,EC50,[4],0.432 nM
same,Kd,[5],0.57 nM
same,Kd,[6],0.55 nM
same,Kd,[7],0.56 nM
same,Kd,[8],0.97 nM
same,Kd,[9],0.6 nM
